In article doi:10.1101/2021.05.24.445390 (bioRxiv, 2021):

B1: TT104-Fab (Fab, V domains shown)
VH: QLQLQESGPGLVRPSETLSLTCSVSDDSMGSSTYYWAWIRQPPGKGLEWIGNVYYNGVTYYNSSLESRLTLSIDPSKNQFSLILSSVTAADTAVYYCARQADNWFDPWGQGTLVTVSS
VL: IMMTQSPATLSVSPGERATLSCRASQSVGSDLAWYQQKPGQAPRLLIYGASYRATGIPARFSGGGSGTEFTLTISSMQSEDFAVYYCQQYYNWPPYTFGQGTKVEIK
B2: TT110-Fab (Fab, V domains shown)
VH: QVQLMQSGAEVQKPGASVKVSCQASGFTLNNYYIHWLRQAPGQGFEWMGIFNPSSGTRTYAQKFQGRISMTADASTTTLYMELSGLTSEDAGVYFCARIGGSTYGRLMTYYFDHWGQGTVVAVSS
VL: VLTQGPVTLSVSPGGRGTLSCRASRSISTTLAWYQQKPGQAPRLLIYGASTRATGIPARFTGSGSGTEFTLTISSLQSEDFAVYYCQQYNDWPVTFGQGTQVEVK

Biological target: Tetanus neurotoxin (TeNT) (Clostridium tetani strain Y-IV-3 (WS …, UniProt P04958))
Assay: SPR

Sequence of Tetanus neurotoxin (TeNT) (Clostridium tetani strain Y-IV-3 (P04958 1-457, chain 1 of 2): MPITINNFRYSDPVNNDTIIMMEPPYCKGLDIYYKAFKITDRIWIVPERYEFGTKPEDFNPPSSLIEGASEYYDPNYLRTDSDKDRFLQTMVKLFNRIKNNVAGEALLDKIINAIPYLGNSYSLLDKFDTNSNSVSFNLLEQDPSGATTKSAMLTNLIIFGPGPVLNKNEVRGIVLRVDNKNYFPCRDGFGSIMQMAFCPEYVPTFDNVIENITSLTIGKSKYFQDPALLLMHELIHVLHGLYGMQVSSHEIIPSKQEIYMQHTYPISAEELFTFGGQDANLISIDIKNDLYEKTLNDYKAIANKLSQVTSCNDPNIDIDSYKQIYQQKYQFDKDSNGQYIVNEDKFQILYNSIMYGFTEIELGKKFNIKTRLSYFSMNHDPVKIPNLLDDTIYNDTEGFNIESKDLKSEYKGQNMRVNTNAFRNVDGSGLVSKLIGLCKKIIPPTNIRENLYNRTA
Sequence of Tetanus neurotoxin (TeNT) (Clostridium tetani strain Y-IV-3 (P04958 458-1315, chain 2 of 2): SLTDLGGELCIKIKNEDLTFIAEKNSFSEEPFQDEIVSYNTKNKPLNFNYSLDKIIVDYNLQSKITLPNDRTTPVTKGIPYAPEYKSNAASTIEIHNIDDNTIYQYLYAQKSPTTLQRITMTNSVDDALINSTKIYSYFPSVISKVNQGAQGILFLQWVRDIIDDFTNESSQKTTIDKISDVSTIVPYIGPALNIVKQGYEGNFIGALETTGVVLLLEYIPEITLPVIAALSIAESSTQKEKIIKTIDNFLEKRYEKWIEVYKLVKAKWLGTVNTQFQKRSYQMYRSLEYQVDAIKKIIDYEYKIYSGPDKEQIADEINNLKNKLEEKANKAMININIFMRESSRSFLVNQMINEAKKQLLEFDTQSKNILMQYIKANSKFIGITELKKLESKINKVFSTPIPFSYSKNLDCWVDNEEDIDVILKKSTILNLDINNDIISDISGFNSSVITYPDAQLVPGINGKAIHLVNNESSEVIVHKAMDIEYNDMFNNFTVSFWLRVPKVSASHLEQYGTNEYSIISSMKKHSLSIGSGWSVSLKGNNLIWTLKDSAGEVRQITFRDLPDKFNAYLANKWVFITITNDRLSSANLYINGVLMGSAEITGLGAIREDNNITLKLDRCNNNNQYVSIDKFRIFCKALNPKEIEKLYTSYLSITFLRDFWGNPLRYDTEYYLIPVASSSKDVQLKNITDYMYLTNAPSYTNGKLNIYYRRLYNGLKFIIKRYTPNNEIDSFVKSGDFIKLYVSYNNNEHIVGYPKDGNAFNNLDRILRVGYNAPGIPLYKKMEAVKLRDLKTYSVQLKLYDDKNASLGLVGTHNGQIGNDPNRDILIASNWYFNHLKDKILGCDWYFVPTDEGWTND

| Binder | Kd |
| --- | --- |
| B1 | 0.0067 nM |
| B2 | 3 nM |
